In publication PMC11117474:

What was measured:
NUPR1 (Homo sapiens) = NUPR1 (Homo sapiens) (UniProt O60356); conditions: cited from earlier work
[1] = target: RYBP (RING1A and YY1 binding protein) (UniProt Q8N488); assay: other fluorescence titration; ARM-PKP1 0-20 uM added to fixed RYBP 4.6 uM; 25 °C; 20 mM Tris pH 7.5, 5 mM TCEP, 150 mM NaCl; fluorescence at 330 nm; fit with ligand depletion
[2] = target: armadillo-repeat domain of plakophilin 1 (ARM-PKP1); assay: ITC; RYBP (100 uM) in the syringe titrated into ARM-PKP1 (10 uM) in the cell; 25 °C; 20 mM Tris pH 7.5, 5 mM TCEP, 150 mM NaCl; single binding site model

UniProt O60356, sequence (O60356 whole entry): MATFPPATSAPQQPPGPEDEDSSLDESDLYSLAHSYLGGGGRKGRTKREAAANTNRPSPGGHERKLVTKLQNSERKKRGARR

For “Plakophilin 1 ARM domain (from UniProt Q13835)”, the Kd (NUPR1 (Homo sapiens)) is listed as 10 µM.

Work on “armadillo-repeat domain of plakophilin 1 (ARM-PKP1) (domain or fragment)” yielded a Kd [1] of 9 µM.

B1: RYBP (RING1A and YY1 binding protein) (natural protein)
chain: MTMGDKKSPTRPKRQAKPAADEGFWDCSVCTFRNSAEAFKCSICDVRKGTSTRKPRINSQLVAQQVAQQYATPPPPKKEKKEKVEKQDKEKPEKDKEISPSVTKKNTNKKTKPKSDILKDPPSEANSIQSANATTKTSETNHTSRPRLKNVDRSTAQQLAVTVGNVTVIITDFKEKTRSSSTSSSTVTSSAGSEQQNQSSSGSESTDKGSSRSSTPKGDMSAVNDESF
With B1 the Kd [2] was 12 µM, the dH [2] was -11.9 kcal/mol and the stoichiometry N [2] was 1.
